± gives the uncertainty stated by the source.
Test: self-splicing fitness, log relative to wild type (ln ratio); higher = more splicing; Tetrahymena group I intron in knt gene, E. coli kanamycin selection, DiMSum; sequences stand for … in CUCUCU…GGAGGGAAAAGUUAUCAGGCAUGCACCUGGUAGCUAGUCUUUAAACCAAUAGAUUGCAUCGGUUUAAAAGGCAAGACCGUCAAAUUGCGGGAAAGGGGUCAACAGCCGUUCAGUACCAAGUCUCAGGGGAAACUUUGAGAUGGCCUUGCAAAGGGUAUGGUAAUAAGCUGACGGACAUGGUCCUAACCACGCAGCCAAGUCCUAAGUCAACAGAUCUUCUGUUGAUAUGGAUGCAGUUCACAGACUAAAUGUCGGUCGGGGAAGAUGUAUUCUUCUCAUAAGAUAUAGUCGGACCUCUCCUUAAUGGGAGCUAGCGGAUGAAGUGAUGCAACACUGGAGCCGCUGGGAACUAAUUUGUAUGCGAAAGUAUAUUGAUUAGUUUUGGAGUACUCGUGGUCG
In short: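 DiMSum derived fitness as the error-weighted combination of fold changes across replicates, kanamycin versus no kanamycin, normalised to wild type. E. coli BL21(DE3) held the library, which randomised all eight P1ex-region intron nucleotides within the knt kanamycin-resistance gene on pET-22b(+). Six replicate transformations grew overnight at 37°C or 30°C on LB agar with or without 25 μg/mL kanamycin, also containing 100 μg/mL carbenicillin, 50 μM IPTG and 0.2% rhamnose, and pooled colonies were amplicon-sequenced on an Illumina HiSeq 2500.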

Sequence | self-splicing fitness (ln) (30 °C) | self-splicing fitness (ln) (37 °C)
CUUCAGCAAUAUUACGCAUG | -1.48 ± 0.061 | 0.119 ± 0.068
CUUCAGCAAUAUUACGCAUU | -3.11 ± 0.19 | -2.28 ± 0.2
CUUCAGCAAUAUUACGCCCC |  | -1.14 ± 0.47
CUUCAGCAAUAUUACGCUAA | -3.37 ± 0.26 | -2.3 ± 0.3
CUUCAGCAAUAUUACGCUAC | -2.4 ± 0.22 | -2.25 ± 0.37
CUUCAGCAAUAUUACGCUCC | -2.61 ± 0.26 | 
CUUCAGCAAUAUUACGCUGU | -3.69 ± 0.31 | -2.47 ± 0.42
CUUCAGCAAUAUUACGGACU | -2.26 ± 0.16 | -2.66 ± 0.27
CUUCAGCAAUAUUACGGAGC | -3.04 ± 0.29 | -2.65 ± 0.25
CUUCAGCAAUAUUACGGAGU | -3.27 ± 0.15 | -3.23 ± 0.28
CUUCAGCAAUAUUACGGAUA | -1.97 ± 0.12 | -0.695 ± 0.11
CUUCAGCAAUAUUACGGCAC | -4.13 ± 0.33 | -0.568 ± 0.13
CUUCAGCAAUAUUACGGGGG | -3.72 ± 0.21 | -2.23 ± 0.26
CUUCAGCAAUAUUACGGGUG | -0.356 ± 0.038 | 0.33 ± 0.058
CUUCAGCAAUAUUACGGGUU | -4.12 ± 0.24 | -2.49 ± 0.23
CUUCAGCAAUAUUACGGUUG | -1.28 ± 0.071 | -0.455 ± 0.088
CUUCAGCAAUAUUACGUACA |  | -2.14 ± 0.5
CUUCAGCAAUAUUACGUGAG | -0.619 ± 0.031 | -0.0413 ± 0.054
CUUCAGCAAUAUUACGUGCA | -3.53 ± 0.25 | -3.83 ± 0.3
CUUCAGCAAUAUUACGUUAC | -3.35 ± 0.28 | -2.27 ± 0.27
CUUGAGCAAUAUUACGAAUG | -1.23 ± 0.12 | -0.596 ± 0.19

Sequence | self-splicing fitness (ln) (30 °C) | self-splicing fitness (ln) (37 °C)
CUUGAGCAAUAUUACGAGAG |  | -1.44 ± 0.24
CUUGAGCAAUAUUACGAUAG | -2.67 ± 0.18 | -0.896 ± 0.2
CUUGAGCAAUAUUACGAUCU |  | -1.04 ± 0.31
CUUGAGCAAUAUUACGCAUG | -2.7 ± 0.21 | -1.3 ± 0.44
CUUGAGCAAUAUUACGCCGA |  | -2.7 ± 0.33
CUUGAGCAAUAUUACGGCUA |  | -1.11 ± 0.42
CUUGAGCAAUAUUACGUAAG | -1.68 ± 0.1 | -0.582 ± 0.13
CUUGAGCAAUAUUACGUGCA | -3.2 ± 0.29 | -1.94 ± 0.25
CUUUAGCAAUAUUACGACCG | -0.732 ± 0.27 | 0.518 ± 0.26
CUUUAGCAAUAUUACGAUGU | -3.36 ± 0.28 | -2.36 ± 0.24
CUUUAGCAAUAUUACGCAUC |  | -1.54 ± 0.43
CUUUAGCAAUAUUACGCAUG | -1.2 ± 0.11 | -1.96 ± 0.11
CUUUAGCAAUAUUACGCCCG | -0.47 ± 0.17 | 0.513 ± 0.24
CUUUAGCAAUAUUACGCCGG | -1.74 ± 0.16 | -1.22 ± 0.19
CUUUAGCAAUAUUACGCUCG | -1.68 ± 0.15 | -0.602 ± 0.18
CUUUAGCAAUAUUACGCUGG | -3.05 ± 0.3 | -1.99 ± 0.3
CUUUAGCAAUAUUACGGACC |  | -1.83 ± 0.41
CUUUAGCAAUAUUACGGCUU | -3.62 ± 0.32 | 
CUUUAGCAAUAUUACGGUUG | -0.918 ± 0.083 | -0.666 ± 0.099
CUUUAGCAAUAUUACGGUUU | -2.79 ± 0.21 | -2.71 ± 0.24
CUUUAGCAAUAUUACGUCUA |  | -2.26 ± 0.29
